Measurements from US20200239549A1 (KM BIOLOGICS, published 2020).

B1: antibody D48 scFv-hFc (Fc fusion, not shown: a dimerising Fc or GST)
scFv: EVQLVETGGGVVRPGRSLRLSCTTSGFSFSGSAMHWVRQAPGKGLEWVAVISHDGNIIQYHDSVKGRFTISRDNSKNVLLLQMNSLRVDDTAMYYCARDVWLLPATISYAFDFWGQGTMVTVSSASTGGGGSGGGGSGGGGSVIWMTQSPPSLSASIGDTVTITCRASQGISNSIAWYQRRPGKAPELLVYAAYRLQSGVPSRLSGSGSGAEYTLTIKNMQPEDFATYYCQQYYDNPLTFGGGTKVEIK
B2: antibody D48 human-guinea pig chimeric IgG2κ (antibody, V domains shown)
VH: EVQLVETGGGVVRPGRSLRLSCTTSGFSFSGSAMHWVRQAPGKGLEWVAVISHDGNIIQYHDSVKGRFTISRDNSKNVLLLQMNSLRVDDTAMYYCARDVWLLPATISYAFDFWGQGTMVTVSS
VL: VIWMTQSPPSLSASIGDTVTITCRASQGISNSIAWYQRRPGKAPELLVYAAYRLQSGVPSRLSGSGSGAEYTLTIKNMQPEDFATYYCQQYYDNPLTFGGGTKVEIK
B3: antibody D48 Fab (Fab, V domains shown, not shown: small tags and cut ends; a dimerising Fc or GST)
VH: B2 VH
VL: B2 VL
B4: antibody D48 human-murine chimeric IgG2a (antibody, V domains shown, not shown: a dimerising Fc or GST)
VH: B2 VH
VL: B2 VL

Experiments:
[1] = molecular target: envelope glycoprotein B (gB) of HSV-1 strain KOS (HSV-1 strain KOS, UniProt P06437 31-904); test: cell-based or functional assay
[2] = molecular target: envelope glycoprotein B (gB) of HSV-2 strain MS (HSV-2 strain MS); test: cell-based or functional assay
[3] = molecular target: recombinant gB (gB1-705-strep), ectodomain of wild type gB of HSV-2 strain 333 (HSV-2 strain 333, UniProt P06763 23-727)

Binder | 50% plaque number-reducing activity [1] [nM] | 50% plaque number-reducing activity [2] [nM] | Kd [3] [pM]
B1 | 1 | 0.12 | –
B2 | 0.94 | 7.5 | 760
B3 | 2.7 | 4.4 | –
B4 | 1.9 | 1.6 | –
